# Data: US9340580B2, “Peptide with multiple epitopes” (priority 2007, dated 2016)
# Like-named read-outs stand apart in the source and are kept apart here.
# T1: human MHC class II allotype DQA1*0102/DQB1*0602 (human, UniProt P01920 33-230, limits assumed)
# T1 construct: Source and construct of the MHC protein in the assay are not described
# T1 MHC II alpha: not shown
# T1 MHC II beta: not shown
# T2: human MHC class II allotype DQA1*0102/DQB1*0602 (human), P01920
# T2 chain 1: not shown
# T2 chain 2: not shown
# T3: human MHC class II allotype HLA-DRB1*1501 (human)
# T3 chain 1: not shown
# T3 chain 2: not shown
# T4: human MHC class II allotype HLA-DRB1*1101 (human)
# T4 chain 1: not shown
# T4 chain 2: not shown
# T5: human MHC class II allotype HLA-DRB1*0701 (human)
# T5 chain 1: not shown
# T5 chain 2: not shown
# B1: Fel d 1 peptide EQVAQYKALPVVLENA (peptide)
# peptide: EQVAQYKALPVVLENA
# notes: Said to have been tested in an earlier study
# Tests used:
# [1] = biological target: T6, human MHC class II allotype HLA-DRB1*1101 (human); experiment: competitive MHC class II binding assay; competitor control peptide influenza haemagglutinin 307-319;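 note: each test peptide was scored on how well it displaces the known control binder from each human MHC class II allotype studied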
# T6 construct: Source and construct of the MHC protein in the assay are not described
# [2] = biological target: T7, human MHC class II allotype HLA-DRB1*1501 (human); experiment: competitive MHC class II binding assay; competitor control peptide myelin basic protein 85-99
# T7 construct: Source and construct of the MHC protein in the assay are not described
# [3] = biological target: T8, human MHC class II allotype HLA-DRB1*1301 (human); experiment: competitive MHC class II binding assay; competitor control peptide HLA-DQB1*0603 21-36
# T8 construct: Source and construct of the MHC protein in the assay are not described
# [4] = biological target: T9, human MHC class II allotype HLA-DRB1*0701 (human); experiment: competitive MHC class II binding assay; competitor control peptide influenza haemagglutinin 307-319;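 note: each test peptide was scored on how well it displaces the known control binder from each human MHC class II allotype studied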
# T9 construct: Source and construct of the MHC protein in the assay are not described
# [5] = biological target: T10, human MHC class II allotype HLA-DRB1*0301 (human); experiment: competitive MHC class II binding assay; competitor control peptide hsp 65 2-16
# T10 construct: Source and construct of the MHC protein in the assay are not described
# [6] = biological target: T1, human MHC class II allotype …; experiment: competitive MHC class II binding assay; competitor control peptide human insulin B 1-15
# [7] = biological target: T2, human MHC class II allotype …
# [8] = biological target: T3, human MHC class II allotype …
# [9] = biological target: T4, human MHC class II allotype …
# [10] = biological target: T5, human MHC class II allotype …
# [11] = biological target: T7, human MHC class II allotype …; experiment: competitive MHC class II binding assay, high stringency screen; competitor control peptide myelin basic protein 85-99
# [12] = biological target: T11, human MHC class II allotype HLA-DRB1*0101 (human); experiment: competitive MHC class II binding assay; competitor control peptide influenza haemagglutinin 307-319;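 note: each test peptide was scored on how well it displaces the known control binder from each human MHC class II allotype studied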
# T11 construct: Source and construct of the MHC protein in the assay are not described
# [13] = biological target: T12, human MHC class II allotype HLA-DRB1*0401 (human); experiment: as above
# T12 construct: Source and construct of the MHC protein in the assay are not described
binder,measurement,setting,value
"RNIQVRGLKQMKRVG (Synthetic peptide, 74.7% purity) [HDM34]",ratio of its own IC50 to that of the control peptide,[1],3.38
same,ratio of its own IC50 to that of the control peptide,[2],769
same,ratio of its own IC50 to that of the control peptide,[3],3.7
"IDLRQMRTVTPIR (Synthetic peptide, 79.2% purity) [HDM01]",ratio of its own IC50 to that of the control peptide,[4],16
same,ratio of its own IC50 to that of the control peptide,[5],19.2
"VSMEYDLAYKLGDLH (Synthetic peptide, 66.9% purity) [HDM40A]",ratio of its own IC50 to that of the control peptide,[1],6
same,ratio of its own IC50 to that of the control peptide,[4],2.29
"RYVAREQSCRRPN (Synthetic peptide, 79.7% purity) [HDM06]",ratio of its own IC50 to that of the control peptide,[1],30.4
same,ratio of its own IC50 to that of the control peptide,[6],0.86
CIIHRGKPFQLEA (modifications not checked) [HDM20],ratio of its own IC50 to that of the control peptide,[7],2.37
same,ratio of its own IC50 to that of the control peptide,[8],242
same,ratio of its own IC50 to that of the control peptide,[9],28
same,ratio of its own IC50 to that of the control peptide,[10],1.1
B1,ratio of its own IC50 to that of the control peptide,[11],0.97
"RTVTPIRMQGGCG (Synthetic peptide, 79.6% purity) [HDM02]",ratio of its own IC50 to that of the control peptide,[2],80
same,ratio of its own IC50 to that of the control peptide,[6],0.03
"RNQSLDLAEQELVDCASQH (Synthetic peptide, 60.1% purity) [HDM03C]",ratio of its own IC50 to that of the control peptide,[6],0.16
"LDMRNIQVRGLKQ (Synthetic peptide, 70.3% purity) [HDM33]",ratio of its own IC50 to that of the control peptide,[1],41.5
same,ratio of its own IC50 to that of the control peptide,[4],46.5
same,ratio of its own IC50 to that of the control peptide,[3],263
"KPFQLEAVFEANQNT (Synthetic peptide, 88.7% purity) [HDM21]",ratio of its own IC50 to that of the control peptide,[1],11.7
same,ratio of its own IC50 to that of the control peptide,[12],92
same,ratio of its own IC50 to that of the control peptide,[13],11.2
"REALAQTHSAIAVI (Synthetic peptide, 69.6% purity) [HDM09A]",ratio of its own IC50 to that of the control peptide,[1],21.1
same,ratio of its own IC50 to that of the control peptide,[4],0.49
same,ratio of its own IC50 to that of the control peptide,[2],200
